Data set [1] concerns the molecule itself. The data set is described as follows: spinning disk fluorescence microscopy of septin polymerisation.
Data set [2] concerns the molecule itself. The data set is described as follows: negative-stain electron microscopy of septin polymerisation.

Substitutions are numbered along the chain they refer to.

B1: SEPT2-msfGFP human septin octamers containing SEPT9_i3 (complex)
chain 1: MSKQQPTQFINPETPGYVGFANLPNQVHRKSVKKGFEFTLMVVGESGLGKSTLINSLFLTDLYPERVIPGAAEKIERTVQIEASTVEIEERGVKLRLTVVDTPGYGDAINCRDCFKTIISYIDEQFERYLHDESGLNRRHIIDNRVHCCFYFISPFGHGLKPLDVAFMKAIHNKVNIVPVIAKADTLTLKERERLKKRILDEIEEHNIKIYHLPDAESDEDEDFKEQTRLLKASIPFSVVGSNQLIEAKGKKVRGRLYPWGVVEVENPEHNDFLKLRTMLITHMQDLQEVTQDLHYENFRSERLKRGGRKVENEDMNKDQILLEKEAELRRMQEMIARMQAQMQMQMQGGDGDGGALGHHV
chain 2: MAATDIARQVGEGCRTVPLAGHVGFDSLPDQLVNKSVSQGFCFNILCVGETGLGKSTLMDTLFNTKFEGEPATHTQPGVQLQSNTYDLQESNVRLKLTIVSTVGFGDQINKEDSYKPIVEFIDAQFEAYLQEELKIRRVLHTYHDSRIHVCLYFIAPTGHSLKSLDLVTMKKLDSKVNIIPIIAKADAISKSELTKFKIKITSELVSNGVQIYQFPTDDESVAEINGTMNAHLPFAVIGSTEELKIGNKMMRARQYPWGTVQVENEAHCDFVKLREMLIRVNMEDLREQTHTRHYELYRRCKLEEMGFKDTDPDSKPFSLQETYEAKRNEFLGELQKKEEEMRQMFVQRVKEKEAELKEAEKELHEKFDRLKKLHQDEKKKLEDKKKSLDDEVNAFKQRKTAAELLQSQGSQAGGSQTLKRDKEKKN
chain 3: MSVSARSAAAEERSVNSSTMVAQQKNLEGYVGFANLPNQVYRKSVKRGFEFTLMVVGESGLGKSTLINSLFLTDLYSPEYPGPSHRIKKTVQVEQSKVLIKEGGVQLLLTIVDTPGFGDAVDNSNCWQPVIDYIDSKFEDYLNAESRVNRRQMPDNRVQCCLYFIAPSGHGLKPLDIEFMKRLHEKVNIIPLIAKADTLTPEECQQFKKQIMKEIQEHKIKIYEFPETDDEEENKLVKKIKDRLPLAVVGSNTIIEVNGKRVRGRQYPWGVAEVENGEHCDFTILRNMLIRTHMQDLKDVTNNVHYENYRSRKLAAVTYNGVDNNKNKGQLTKSPLAQMEEERREHVAKMKKMEMEMEQVFEMKVKEKVQKLKDSEAELQRRHEQMKKNLEAQHKELEEKRRQFEDEKANWEAQQRILEQQNSSRTLEKNKKKGKIF
chain 4: MERDRISALKRSFEVEEVETPNSTPPRRVQTPLLRATVASSTQKFQDLGVKNSEPSARHVDSLSQRSPKASLRRVELSGPKAAEPVSRRTELSIDISSKQVENAGAIGPSRFGLKRAEVLGHKTPEPAPRRTEITIVKPQESAHRRMEPPASKVPEVPTAPATDAAPKRVEIQMPKPAEAPTAPSPAQTLENSEPAPVSQLQSRLEPKPQPPVAEATPRSQEATEAAPSCVGDMADTPRDAGLKQAPASRNEKAPVDFGYVGIDSILEQMRRKAMKQGFEFNIMVVGQSGLGKSTLINTLFKSKISRKSVQPTSEERIPKTIEIKSITHDIEEKGVRMKLTVIDTPGFGDHINNENCWQPIMKFINDQYEKYLQEEVNINRKKRIPDTRVHCCLYFIPATGHSLRPLDIEFMKRLSKVVNIVPVIAKADTLTLEERVHFKQRITADLLSNGIDVYPQKEFDEDSEDRLVNEKFREMIPFAVVGSDHEYQVNGKRILGRKTKWGTIEVENTTHCEFAYLRDLLIRTHMQNIKDITSSIHFEAYRVKRLNEGSSAMANGVEEKEPEAPEM
On to B1, for which, in data set [1], the binding result is “binds”.

B2: recombinant human septin octamers containing SEPT9_i1 (nonfluorescent) (complex)
chain 1: B1 chain 1
chain 2: B1 chain 2
chain 3: B1 chain 3
chain 4: MKKSYSGGTRTSSGRLRRLGDSSGPALKRSFEVEEVETPNSTPPRRVQTPLLRATVASSTQKFQDLGVKNSEPSARHVDSLSQRSPKASLRRVELSGPKAAEPVSRRTELSIDISSKQVENAGAIGPSRFGLKRAEVLGHKTPEPAPRRTEITIVKPQESAHRRMEPPASKVPEVPTAPATDAAPKRVEIQMPKPAEAPTAPSPAQTLENSEPAPVSQLQSRLEPKPQPPVAEATPRSQEATEAAPSCVGDMADTPRDAGLKQAPASRNEKAPVDFGYVGIDSILEQMRRKAMKQGFEFNIMVVGQSGLGKSTLINTLFKSKISRKSVQPTSEERIPKTIEIKSITHDIEEKGVRMKLTVIDTPGFGDHINNENCWQPIMKFINDQYEKYLQEEVNINRKKRIPDTRVHCCLYFIPATGHSLRPLDIEFMKRLSKVVNIVPVIAKADTLTLEERVHFKQRITADLLSNGIDVYPQKEFDEDSEDRLVNEKFREMIPFAVVGSDHEYQVNGKRILGRKTKWGTIEVENTTHCEFAYLRDLLIRTHMQNIKDITSSIHFEAYRVKRLNEGSSAMANGVEEKEPEAPEM
With B2, the binding result in data set [2] was “binds”.

B3: recombinant human septin octamers containing SEPT9_i3 (nonfluorescent) (complex)
chain 1: B1 chain 1
chain 2: B1 chain 2
chain 3: B1 chain 3
chain 4: B1 chain 4
Regarding B3, the binding result in data set [2] is listed as “binds”.

B4: recombinant mammalian SEPT2-, SEPT6-, SEPT7-containing hexamers (mouse SEPT2, human SEPT6, human SEPT7ΔN19) (complex)
chain 1: B1 chain 1 with V67I, N207S, G352S, G354S, H359Q
chain 2: B1 chain 2
chain 3: MVAQQKNLEGYVGFANLPNQVYRKSVKRGFEFTLMVVGESGLGKSTLINSLFLTDLYSPEYPGPSHRIKKTVQVEQSKVLIKEGGVQLLLTIVDTPGFGDAVDNSNCWQPVIDYIDSKFEDYLNAESRVNRRQMPDNRVQCCLYFIAPSGHGLKPLDIEFMKRLHEKVNIIPLIAKADTLTPEECQQFKKQIMKEIQEHKIKIYEFPETDDEEENKLVKKIKDRLPLAVVGSNTIIEVNGKRVRGRQYPWGVAEVENGEHCDFTILRNMLIRTHMQDLKDVTNNVHYENYRSRKLAAVTYNGVDNNKNKGQLTKSPLAQMEEERREHVAKMKKMEMEMEQVFEMKVKEKVQKLKDSEAELQRRHEQMKKNLEAQHKELEEKRRQFEDEKANWEAQQRILEQQNSSRTLEKNKKKGKIF
As to B4, in data set [2], the binding result is on record as “binds”.

B5: recombinant mammalian SEPT9_i3-containing octamers (mouse SEPT2, human SEPT6, human SEPT7ΔN19, human SEPT9_i3) (complex)
chain 1: B1 chain 1 with V67I, N207S, G352S, G354S, H359Q
chain 2: B1 chain 2
chain 3: B4 chain 3
chain 4: B1 chain 4
Turning to B5, the binding result in data set [2] is on record as “binds”.

B6: recombinant Drosophila septin hexamers (DSep1-msfGFP, DSep2, Peanut) (complex)
chain 1: MADTKGFSSIETPGYVGFANLPNQVHRKSVKKGFEFTLMVVGESGLGKSTLVNSLFLTDLYPERIIPDAIEKQKQTVKLEASTVEIEERGVKLRLTVVDTPGFGDAIDNSNSFGAILEYIDEQYERFLRDESGLNRRNIVDNRIHCCFYFISPFGHGLKPLDVEFMKKLHSKVNIVPVIAKADCLTKKEILRLKCRIMQEIESHGIKIYPLPDCDSDEDEDYKEQVKQLKEAVPFAVCGANTLLEVKGKKVRGRLYPWGVVEVENPDHCDFIKLRTMLITHMQDLQEVTQEVHYENYRSDRLAKGIKGKENGVKAERDSSSQVVSNSVLGEKDRILQEKEAELRRMQEMLAQMQARMQAQQ
chain 2: MSVEVDFVDKKEVHLRTLKQSGHVGFDSLPDQLVNKSVQNGFVFNVMCIGETGLGKSTLMDTLFNTSFESTPSPHTLPSVKLKAHTYELQESNVRLKLTICDTVGYGDQINKDDSFKAVVDYIDAQFENYLQEELKIKRSLVTCHDSRIHICLYFICPTGHGLKSLDLVCMKKLDSKVNIIPVIAKADTISKVELQRFKAKIIQELNANGVHIYQFPTDDETVAETNTSMNSHIPFAVVGSTEFIKVGNKLIRARQYPWGTVQVENETHCDFVKLREMLIRTNMEDMREKTHTRHYELYRQKRLEQMGFSDVDSDNKPISFQQTFEAKRSNHLAELQSKEEEVRQMFVQRVKEKEAELKESEKDLHAKFEKLKRDHAEEKRKLEESRKALEEDYLDFQRRKQQLATAHHTLTLGKSKKK
chain 3: MNSPRSNAVNGGSGGAISALPSTLAQLALRDKQQAASASASSATNGSSGSESLVGVGGRPPNQPPSVPVAASGKLDTSGGGASNGDSNKLTHDLQEKEHQQAQKPQKPPLPVRQKPMEIAGYVGFANLPNQVYRKAVKRGFEFTLMVVGASGLGKSTLINSMFLSDIYNAEQYPGPSLRKKKTVAVEATKVMLKENGVNLTLTVVDTPGFGDAVDNSNCWVPILEYVDSKYEEYLTAESRVYRKTISDSRVHCCLYFIAPSGHGLLPLDIACMQSLSDKVNLVPVIAKADTMTPDEVHLFKKQILNEIAQHKIKIYDFPATLEDAAEEAKTTQNLRSRVPFAVVGANTIIEQDGKKVRGRRYPWGLVEVENLTHCDFIALRNMVIRTHLQDLKDVTNNVHYENYRCRKLSELGLVDGKARLSNKNPLTQMEEEKREHEQKMKKMEAEMEQVFDMKVKEKMQKLRDSELELARRHEERKKALELQIRELEEKRREFEREKKEWEDVNHVTLEELKRRSLGANSSTDNVDGKKEKKKKGLF
With B6, in data set [1], the binding result is given as “binds”.
